From patent publication US20180023071A1 (PRONASCI, published 2018)
Bridges are numbered along the chain shown (N, C = ends). Where no end group is shown, it is not given here.

Biological target: human Low Density Lipoprotein receptor (hLDL-R) (human, UniProt P01130 22-860)
Experiment: cell-based or functional assay

Chain of human Low Density Lipoprotein receptor (hLDL-R) (P01130 22-860): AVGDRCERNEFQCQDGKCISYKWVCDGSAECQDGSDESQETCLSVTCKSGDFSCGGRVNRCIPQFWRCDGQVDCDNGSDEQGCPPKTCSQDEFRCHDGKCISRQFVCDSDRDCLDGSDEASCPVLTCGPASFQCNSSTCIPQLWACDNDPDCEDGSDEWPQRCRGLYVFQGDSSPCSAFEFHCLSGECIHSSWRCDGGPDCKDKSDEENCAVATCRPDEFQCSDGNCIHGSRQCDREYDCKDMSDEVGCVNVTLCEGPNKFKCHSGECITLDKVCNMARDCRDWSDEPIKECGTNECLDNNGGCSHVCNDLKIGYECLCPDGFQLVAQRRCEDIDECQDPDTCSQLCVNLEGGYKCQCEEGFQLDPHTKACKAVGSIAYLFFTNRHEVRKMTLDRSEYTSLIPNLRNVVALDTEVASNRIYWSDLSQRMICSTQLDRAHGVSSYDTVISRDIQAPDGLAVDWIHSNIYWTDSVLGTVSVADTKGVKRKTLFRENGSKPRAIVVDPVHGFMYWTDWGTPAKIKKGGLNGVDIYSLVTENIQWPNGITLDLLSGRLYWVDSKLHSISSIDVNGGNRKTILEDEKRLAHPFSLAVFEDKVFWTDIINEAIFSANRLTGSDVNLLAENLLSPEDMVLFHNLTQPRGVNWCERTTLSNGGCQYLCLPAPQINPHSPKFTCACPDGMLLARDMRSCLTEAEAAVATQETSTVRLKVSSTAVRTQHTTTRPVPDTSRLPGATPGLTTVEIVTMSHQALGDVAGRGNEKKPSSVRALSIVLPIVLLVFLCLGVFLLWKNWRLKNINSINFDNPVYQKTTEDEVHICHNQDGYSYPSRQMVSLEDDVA

B1: CP3 (Loop-3 peptide), S-S bridged cyclic hPCSK9 365-384 (peptide)
peptide: GEDIIGASSDCSTCFVSQSG
modifications: disulfide 11-14
B1 was tested, and the “LDL-R level in HepG2 cells (western blot, relative to TR), CP3 at 50 µM” value was roughly 3.5 fold.
